# US20230140200A1, “COMPOSITIONS AND METHODS FOR DETECTING CELLS UNDERGOING FERROPTOSIS USING AN ANTIBODY” (THE TRUSTEES OF COLUMBIA UNIVERSITY IN THE CITY OF NEW YORK, priority 2020, published 2023)
# B1: 3F3-FMA: Murine monoclonal IgG1 raised against ferroptotic membrane fractions; antigen is transferrin receptor protein 1 (TfR1) (antibody, V domains shown)
# VH: EVLLQQSGTELVRPGALVKLSCKASGFNIQDLYIHWVKQRPEQGLEWIGWIDPETDNTIYDPKFQGKASITADTSSNTAYLQLSSLTSEDTAMYYCSTGLLQWYFDVWGAGTAVTVSS
# VL: DIVMTQSPSSLAMSIGQKVTMRCKSSQSLLNSYNQKNCLAWYQQKPGQSPKLLLYFVSTRESGVPDRFIGSGSGTDFTLTISSVQAEDLADYFCQQHYSTPLTFGAGTKLELK
# Key:
# human brain tissues = assay: Staining of post-mortem Huntington's disease and control brain tissues; conditions: HD and control groups
# Description: FIGS. 12A-12B show 3F3 FMA staining in human Huntington's disease brains and mouse tissues. In FIG. 12A, human HD and control brain tissues were fixed in 4% PFA for 24 h, perfused in 30% sucrose for 24 h, and stained with DAPI (nuclei, blue) and 3F3 FMA (red). The expression level of TfR1 is low. There was no difference between HD and control groups. In FIG. 12B, mouse liver tissues and mouse GBM tissues were fixed and stained with DAPI (nuclei, blue) and 3F3 FMA (red). 3F3 FMA was able to recognize mouse TfR1.
# HT-1080 cells = assay: Immunofluorescence staining of treated cells, quantification of membrane intensity; format: cell-based, human
# [1] = molecular target: T1, transferrin receptor protein 1 (Homo sapiens, UniProt P02786); assay: Immunoprecipitation-mass spectrometry antigen identification; format: binding; conditions: HT-1080 cell lysate, IP-MS
# T1 construct: endogenous in cells; host or cells: HT-1080
# Description: HT-1080 cells were seeded in DMEM (Corning 10-013-CM) and 10% Hi-FBS with 1% penicillin and streptomycin (PS) with 1% MEM Non-Essential Amino Acids Solution (100×) (Thermo Fisher Scientific 11140-076) 16 h prior to use. DMSO or 1 μM of RSL3 was added and incubated for 4 h. Following treatment, the medium was aspirated from each dish and cells were washed twice with PBS. Cells were lysed with 70 μl lysis buffer (RIPA buffer from ThermoFisher, cat. 89900, 1 mM EDTA, 1 mM PMSF, 1× Halt™ protease inhibitor cocktail from ThermoFisher, cat. 78430 and 1× Halt™ phosphatase inhibitor cocktail from ThermoFisher, cat. 78426). Unlysed cells and debris were pelleted for 15 min at 16,000×g at 4° C. The samples were incubated with 10 μg of 3F3 FMA overnight at 4° C. with shaking. The next day, Thermo Scientific Pierce Protein AG Magnetic Beads (Thermo Fisher Scientific 88802) were washed with TBS with 0.05% Tween 20 (wash buffer) and then were incubated with sample/antibody mixture for 1 h with mixing. The beads were collected with a magnetic stand and then washed with wash buffer for three times. The beads were used for mass spectrometry.
# Trypsin digestion was performed overnight at 37° C. […] CID fragmentation was applied with 35% collision energy and resulting fragments were detected using the rapid scan rate in the ion trap. […]
# Raw mass spectrometric data were analyzed using MaxQuant v. […]
# T1 sequence (P02786 whole entry): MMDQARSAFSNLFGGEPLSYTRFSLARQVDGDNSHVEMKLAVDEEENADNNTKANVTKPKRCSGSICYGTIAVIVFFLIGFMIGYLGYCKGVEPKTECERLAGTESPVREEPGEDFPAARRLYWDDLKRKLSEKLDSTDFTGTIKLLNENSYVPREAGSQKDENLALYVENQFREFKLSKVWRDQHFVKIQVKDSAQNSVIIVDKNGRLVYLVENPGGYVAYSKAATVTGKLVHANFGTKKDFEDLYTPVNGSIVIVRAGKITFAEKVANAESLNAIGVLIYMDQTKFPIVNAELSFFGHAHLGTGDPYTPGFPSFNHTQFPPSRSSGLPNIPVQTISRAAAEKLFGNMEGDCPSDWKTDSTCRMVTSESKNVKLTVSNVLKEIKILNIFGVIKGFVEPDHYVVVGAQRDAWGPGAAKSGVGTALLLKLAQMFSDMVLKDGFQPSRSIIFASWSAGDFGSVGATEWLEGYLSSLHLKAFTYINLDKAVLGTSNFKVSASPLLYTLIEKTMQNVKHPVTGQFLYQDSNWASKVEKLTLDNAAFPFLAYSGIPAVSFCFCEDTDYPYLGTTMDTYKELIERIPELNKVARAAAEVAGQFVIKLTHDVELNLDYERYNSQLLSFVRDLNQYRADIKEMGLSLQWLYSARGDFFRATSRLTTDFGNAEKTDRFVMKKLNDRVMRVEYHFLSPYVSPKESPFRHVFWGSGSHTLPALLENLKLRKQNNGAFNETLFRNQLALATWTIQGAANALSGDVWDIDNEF
molecule,measurement,setting,value
B1,staining signal in brain tissue,human brain tissues,lack of signal
same,co-localization with GM130 (Golgi marker),"HT-1080 cells; 1 μM RSL3, 4 h",located in the Golgi
same,co-localization with Tom20 (mitochondria) and PDI (ER) markers,"HT-1080 cells; 1 μM RSL3, 4 h",not visible in mitochondria or the ER
same,antibody staining / membrane intensity in RSL3-induced ferroptosis,"HT-1080 cells; 1 μM RSL3, 4 h, vs DMSO",stained cell boundaries and the inside puncta became brighter
same,antibody staining on cell surface in STS-induced apoptosis,"HT-1080 cells; 1 μM STS, 6 h",wasn't detected
same,antibody membrane intensity in camptothecin-induced apoptosis,"HT-1080 cells; 2 μM camptothecin, 24 h",no significant increase
same,antibody membrane intensities in H2O2-treated cells,"HT-1080 cells; 1 mM H2O2, 4 h",didn't observe increased membrane intensities
same,amino acid coverage of TfR1,[1],53%
same,confidence of identification of transferrin receptor protein 1 as target antigen,[1],63%
